These results are taken from US20230227838A1, “ENHANCED CELL SURVIVAL AGAINST BIOTIC AND ABIOTIC STRESSES THROUGH SALICYLICK ACID-INDUCED NPR1 CONDENSATES” (priority 2020, published 2023).

The experiment deals with sim3-GFP (Arabidopsis thaliana) (UniProt P93002). Put plainly: sim3-GFP IP, LC-MS/MS.
Sequence of sim3-GFP (Arabidopsis thaliana) (P93002 other isoform, or with tags, fused parts or gaps): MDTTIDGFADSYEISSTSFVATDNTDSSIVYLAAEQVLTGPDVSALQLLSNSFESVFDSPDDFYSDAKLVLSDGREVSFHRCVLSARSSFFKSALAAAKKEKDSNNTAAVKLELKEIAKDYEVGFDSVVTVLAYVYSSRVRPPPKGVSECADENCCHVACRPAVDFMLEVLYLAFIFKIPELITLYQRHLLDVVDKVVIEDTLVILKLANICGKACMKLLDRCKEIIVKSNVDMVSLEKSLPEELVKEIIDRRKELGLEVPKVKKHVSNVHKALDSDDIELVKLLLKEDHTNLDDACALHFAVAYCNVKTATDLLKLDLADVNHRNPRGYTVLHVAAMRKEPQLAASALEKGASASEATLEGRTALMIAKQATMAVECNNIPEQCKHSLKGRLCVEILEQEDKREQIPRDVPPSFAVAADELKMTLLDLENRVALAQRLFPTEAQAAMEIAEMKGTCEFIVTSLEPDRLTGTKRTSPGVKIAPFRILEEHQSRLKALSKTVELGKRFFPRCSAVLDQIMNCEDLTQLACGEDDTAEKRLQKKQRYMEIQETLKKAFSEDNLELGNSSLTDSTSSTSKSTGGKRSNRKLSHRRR

B1: PDIL2-2, PDI-like 2-2 (protein, UniProt Q9MAU6 27-447, looked up)
Protein disulfide-isomerase like 2-2: LYGSSSPVLQLTPSNFKSKVLNSNGVVLVEFFAPWCGHCQSLTPTWEKVASTLKGIATVAAIDADAHKSVSQDYGVRGFPTIKVFVPGKPPIDYQGARDAKSISQFAIKQIKALLKDRLDGKTSGTKNGGGSSEKKKSEPSASVELNSSNFDELVTESKELWIVEFFAPWCGHCKKLAPEWKKAANNLKGKVKLGHVNCDAEQSIKSRFKVQGFPTILVFGSDKSSPVPYEGARSASAIESFALEQLESNAGPAEVTELTGPDVMEDKCGSAAICFVSFLPDILDSKAEGRNKYLEMLLSVADKFKKDPYGFVWVAAGKQPDLEKRVGVGGYGYPAMVALNAKKGAYAPLKSGFEVKHLKDFVKEAAKGGKGNLPIDGTMEIVKTEAWDGKDGEVVDADEFSLEDLMGNDDEASTESKDDL
On to B1, for which the Normalized Fold Change: SA vs Mock is 2.2 fold.

B2: ATMEK4, ATMKK4, MKK4, mitogen-activated protein kinase kinase 4 (protein, UniProt O80397 1-366, looked up)
Mitogen-activated protein kinase kinase 4: MRPIQSPPGVSVPVKSRPRRRPDLTLPLPQRDVSLAVPLPLPPTSGGSGGSSGSAPSSGGSASSTNTNSSIEAKNYSDLVRGNRIGSGAGGTVYKVIHRPSSRLYALKVIYGNHEETVRRQICREIEILRDVNHPNVVKCHEMFDQNGEIQVLLEFMDKGSLEGAHVWKEQQLADLSRQILSGLAYLHSRHIVHRDIKPSNLLINSAKNVKIADFGVSRILAQTMDPCNSSVGTIAYMSPERINTDLNQGKYDGYAGDIWSLGVSILEFYLGRFPFPVSRQGDWASLMCAICMSQPPEAPATASPEFRHFISCCLQREPGKRRSAMQLLQHPFILRASPSQNRSPQNLHQLLPPPRPLSSSSSPTT
With B2, the Normalized Fold Change: SA vs Mock amounted to 2.62 fold.

B3: BSL2, BRI1 suppressor 1 (BSU1)-like 2 (protein, UniProt Q9SJF0 1-1018, looked up)
Serine/threonine-protein phosphatase BSL2: MDEDSSMVADNDQDREFQSLDGGQSPSPMERETPQQMNDQSPPPEGGSVPTPPPSDPNPATSQQQAAAVVGQEQQPALVVGPRCAPTYSVVDAMMDKKEDGPGPRCGHTLTAVPAVGDEGTPGYIGPRLVLFGGATALEGNSGGTGTPTSAGSAGIRLAGATADVHCYDVLSNKWTRLTPFGEPPTPRAAHVATAVGTMVVIQGGIGPAGLSAEDLHVLDLTQQRPRWHRVVVQGPGPGPRYGHVMALVGQRYLMAIGGNDGKRPLADVWALDTAAKPYEWRKLEPEGEGPPPCMYATASARSDGLLLLCGGRDANSVPLASAYGLAKHRDGRWEWAIAPGVSPSSRYQHAAVFVNARLHVSGGALGGGRMVEDSSSVAVLDTAAGVWCDTKSVVTSPRTGRYSADAAGGDASVELTRRCRHAAAAVGDLIFIYGGLRGGVLLDDLLVAEDLAAAETTYAASHAAAAAATNSPPGRLPGRYGFSDERNRELSESAADGAVVLGSPVAPPVNGDMHTDISPENALLPGTRRTNKGVEYLVEASAAEAEAISATLAAAKARQVNGEVELPDRDCGAEATPSGKPTFSLIKPDSMGSMSVTPAGIRLHHRAVVVAAETGGALGGMVRQLSIDQFENEGRRVSYGTPESATAARKLLDRQMSINSVPKKVIAHLLKPRGWKPPVRRQFFLDCNEIADLCDSAERIFASEPTVLQLKAPIKIFGDLHGQFGDLMRLFDEYGSPSTAGDISYIDYLFLGDYVDRGQHSLETISLLLALKVEYQHNVHLIRGNHEAADINALFGFRIECIERMGERDGIWVWHRINRLFNWLPLAASIEKKIICMHGGIGRSINHVEQIENIQRPITMEAGSIVLMDLLWSDPTENDSVEGLRPNARGPGLVTFGPDRVMEFCNNNDLQLIVRAHECVMDGFERFAQGHLITLFSATNYCGTANNAGAILVLGRDLVVVPKLIHPLPPALSSPETSPERHIEDTWMQELNANRPATPTRGRPQNSNDRGGSLAWM
In turn, B3 showed a Normalized Fold Change: SA vs Mock of 2.07 fold.

B4: ALDH7B4, aldehyde dehydrogenase 7B4 (protein, UniProt Q9SYG7 1-508, looked up)
Aldehyde dehydrogenase family 7 member B4: MGSANNEYEFLSEIGLTSHNLGSYVAGKWQANGPLVSTLNPANNQPIAQVVEASLEDYEQGLKACEEAAKIWMQVTAPKRGDIVRQIGDALRSKLDYLGRLLSLEMGKILAEGIGEVQEVIDMCDFAVGLSRQLNGSVIPSERPNHMMLEMWNPLGIVGVITAFNFPCAVLGWNACIALVCGNCVVWKGAPTTPLITIAMTKLVAEVLEKNNLPGAIFTAMCGGAEIGEAIAKDTRIPLVSFTGSSRVGSMVQQTVNARSGKTLLELSGNNAIIVMDDADIQLAARSVLFAAVGTAGQRCTTCRRLLLHESVYDKVLEQLLTSYKQVKIGNPLEKGTLLGPLHTPESKKNFEKGIEVIKSQGGKILTGGKAVEGEGNFVEPTIIEISADAAVVKEELFAPVLYVLKFKSFGEAVAINNSVPQGLSSSIFTRNPENIFRWIGPLGSDCGIVNVNIPTNGAEIGGAFGGEKATGGGREAGSDSWKQYMRRSTCTINYGNELPLAQGINFG
As to B4, the Normalized Fold Change: SA vs Mock was 2.01 fold.

B5: PCS1, phytochelatin synthase 1 (PCS1) (protein, UniProt Q9S7Z3 1-485, looked up)
Glutathione gamma-glutamylcysteinyltransferase 1: MAMASLYRRSLPSPPAIDFSSAEGKLIFNEALQKGTMEGFFRLISYFQTQSEPAYCGLASLSVVLNALSIDPGRKWKGPWRWFDESMLDCCEPLEVVKEKGISFGKVVCLAHCSGAKVEAFRTSQSTIDDFRKFVVKCTSSENCHMISTYHRGVFKQTGTGHFSPIGGYNAERDMALILDVARFKYPPHWVPLKLLWEAMDSIDQSTGKRRGFMLISRPHREPGLLYTLSCKDESWIEIAKYLKEDVPRLVSSQHVDSVEKIISVVFKSLPSNFNQFIRWVAEIRITEDSNQNLSAEEKSRLKLKQLVLKEVHETELFKHINKFLSTVGYEDSLTYAAAKACCQGAEILSGSPSKEFCCRETCVKCIKGPDDSEGTVVTGVVVRDGNEQKVDLLVPSTQTECECGPEATYPAGNDVFTALLLALPPQTWSGIKDQALMHEMKQLISMASLPTLLQEEVLHLRRQLQLLKRCQENKEEDDLAAPAY
Regarding B5, the Normalized Fold Change: SA vs Mock was found to be 3.43 fold.

B6: UBC36, ubiquitin-conjugating enzyme 36 (protein, UniProt Q9FZ48 1-153, looked up)
Ubiquitin-conjugating enzyme E2 36: MANSNLPRRIIKETQRLLSEPAPGISASPSEENMRYFNVMILGPTQSPYEGGVFKLELFLPEEYPMAAPKVRFLTKIYHPNIDKLGRICLDILKDKWSPALQIRTVLLSIQALLSAPNPDDPLSENIAKHWKSNEAEAVETAKEWTRLYASGA
Regarding B6, the Normalized Fold Change: SA vs Mock amounted to 3.95 fold.

B7: ELI3-2, elicitor-activated gene 3-2 (protein, UniProt Q02972 1-359, looked up)
Cinnamyl alcohol dehydrogenase 8: MGKVLQKEAFGLAAKDNSGVLSPFSFTRRETGEKDVRFKVLFCGICHSDLHMVKNEWGMSTYPLVPGHEIVGVVTEVGAKVTKFKTGEKVGVGCLVSSCGSCDSCTEGMENYCPKSIQTYGFPYYDNTITYGGYSDHMVCEEGFVIRIPDNLPLDAAAPLLCAGITVYSPMKYHGLDKPGMHIGVVGLGGLGHVGVKFAKAMGTKVTVISTSEKKRDEAINRLGADAFLVSRDPKQIKDAMGTMDGIIDTVSATHSLLPLLGLLKHKGKLVMVGAPEKPLELPVMPLIFERKMVMGSMIGGIKETQEMIDMAGKHNITADIELISADYVNTAMERLEKADVRYRFVIDVANTLKPNPNL
Regarding B7, the Normalized Fold Change: SA vs Mock worked out at 57 fold.

B8: UGT73B2, UDP-glucosyltransferase 73B2 (protein, UniProt Q94C57 1-483, looked up)
UDP-glucosyl transferase 73B2: MGSDHHHRKLHVMFFPFMAYGHMIPTLDMAKLFSSRGAKSTILTTSLNSKILQKPIDTFKNLNPGLEIDIQIFNFPCVELGLPEGCENVDFFTSNNNDDKNEMIVKFFFSTRFFKDQLEKLLGTTRPDCLIADMFFPWATEAAGKFNVPRLVFHGTGYFSLCAGYCIGVHKPQKRVASSSEPFVIPELPGNIVITEEQIIDGDGESDMGKFMTEVRESEVKSSGVVLNSFYELEHDYADFYKSCVQKRAWHIGPLSVYNRGFEEKAERGKKANIDEAECLKWLDSKKPNSVIYVSFGSVAFFKNEQLFEIAAGLEASGTSFIWVVRKTKDDREEWLPEGFEERVKGKGMIIRGWAPQVLILDHQATGGFVTHCGWNSLLEGVAAGLPMVTWPVGAEQFYNEKLVTQVLRTGVSVGASKHMKVMMGDFISREKVDKAVREVLAGEAAEERRRRAKKLAAMAKAAVEEGGSSFNDLNSFMEEFSS
The molecule B8 came in with a Normalized Fold Change: SA vs Mock of 8.08 fold.

B9: PNG1, peptide-N-glycanase 1 (protein, UniProt Q9FGY9 1-721, looked up)
Peptide-N(4)-(N-acetyl-beta-glucosaminyl)asparagine amidase: MVARKFVVRHEDSSFDVDYNTEDGLEVLRFLIFSLTLVPPEEQKIVAEDDNRLVSDESDLASLSERLRLVSVGEDSVENSDAEMLKSDEELARMLQAEEDAIMFQQFVAARDNGEFEGRIRPYVSQVLMYEDPVRQDAARKTVPKDELEEKALVSLAKEGNFEPSKEERDYAFLLQLLFWFKKSFRWVNEPPCDFCGNKTIGQGMGNPLTSELAYGANRVEIYRCTMCPTTTRFPRYNDPLKLVETKKGRCGEWANCFTLYCRTFGYDSRLIMDFTDHVWTECYSHSLKRWIHLDPCEGVYDKPMLYEKGWNKKLNYVIAISKDGVCDVTKRYTKKWHEVLSRRTLTTESSLQDGLRTLTRERRRSLMFESLSKLELRDRNEQEELERNLHSADNASVSLPGRQSGDREWRIMRSEFGSDENSSVSSSSCPVRKCVDDHVTNIYDSFLPILTQFVEDGLPVARTNEVLKMIKQVLVDLKNAPYKTRKARLTLDSDNSSSFPEQFLPALGDLLLALSLKSERDTNGKSVTISVDGKLTKTAIALPVALDALRELVADLSKYQNLNKDSLSFPLVKQNRVCSGSVLASGEELPSGIATAAFDGIQESKWEEPNGAKGCWIVYKTLYNQMHQLIAYELMSANDAPERDPKDWILEGSNDGGSTWCVLDKQTSQVFEERFQRKSYKITTPGFQANLFRFRFLSVRDVNSTSRLQLGSIDLYRSHQ
For B9, the Normalized Fold Change: SA vs Mock is 3.13 fold.

B10: DMR6, 2-oxoglutarate (2OG) and Fe(II)-dependent oxygenase superfamily protein (protein, UniProt Q9FLV0 1-341, looked up)
Protein DOWNY MILDEW RESISTANCE 6: MAAKLISTGFRHTTLPENYVRPISDRPRLSEVSQLEDFPLIDLSSTDRSFLIQQIHQACARFGFFQVINHGVNKQIIDEMVSVAREFFSMSMEEKMKLYSDDPTKTTRLSTSFNVKKEEVNNWRDYLRLHCYPIHKYVNEWPSNPPSFKEIVSKYSREVREVGFKIEELISESLGLEKDYMKKVLGEQGQHMAVNYYPPCPEPELTYGLPAHTDPNALTILLQDTTVCGLQILIDGQWFAVNPHPDAFVINIGDQLQALSNGVYKSVWHRAVTNTENPRLSVASFLCPADCAVMSPAKPLWEAEDDETKPVYKDFTYAEYYKKFWSRNLDQEHCLENFLNN
On to B10, for which the Normalized Fold Change: SA vs Mock was determined as 15.6 fold.

B11: AtHSBP, HSBP, heat shock factor binding protein (protein, UniProt Q8GW48 1-86, looked up)
Heat shock factor-binding protein: MDGHDSEDTKQSTADMTAFVQNLLQQMQTRFQTMSDSIITKIDDMGGRINELEQSINDLRAEMGVEGTPPPASKSGDEPKTPASSS
Take B11: the Normalized Fold Change: SA vs Mock worked out at 6.22 fold.

B12: GRF6, G-box regulating factor 6 (protein, UniProt P48349 1-248, looked up)
14-3-3-like protein G-BOX factor 14 lambda: MAATLGRDQYVYMAKLAEQAERYEEMVQFMEQLVTGATPAEELTVEERNLLSVAYKNVIGSLRAAWRIVSSIEQKEESRKNDEHVSLVKDYRSKVESELSSVCSGILKLLDSHLIPSAGASESKVFYLKMKGDYHRYMAEFKSGDERKTAAEDTMLAYKAAQDIAAADMAPTHPIRLGLALNFSVFYYEILNSSDKACNMAKQAFEEAIAELDTLGEESYKDSTLIMQLLRDNLTLWTSDMQEQMDEA
B12 displayed a Normalized Fold Change: SA vs Mock of 2.01 fold.

B13: GPX8, glutathione peroxidase 8 (protein, UniProt Q8LBU2 1-167, looked up)
Probable glutathione peroxidase 8: MATKEPESVYELSIEDAKGNNLALSQYKDKVLLIVNVASKCGMTNSNYTELNELYNRYKDKGLEILAFPCNQFGDEEPGTNDQITDFVCTRFKSEFPIFNKIEVNGENASPLYKFLKKGKWGIFGDDIQWNFAKFLVDKNGQAVQRYYPTTSPLTLEHDIKNLLNIS
B13 registered a Normalized Fold Change: SA vs Mock of 19.6 fold.
